Assay results published in publication PMC3902929 (Nucleic Acids Research, 2013).

Molecular target: the molecule itself
Experiment: crystal structure

B1: Clostridium thermocellum polynucleotide kinase (CthPnk) mutant D38N (enzyme, UniProt A3DJ38 1-170, looked up)
chain: MKLTIPELSLVVLIGSSGSGKSTFAKKHFKPTEVISSNFCRGLVSDDENDQTVTGAAFDVLHYIVSKRLQLGKLTVVDATNVQESARKPLIEIAKDYHCFPVAVVFNLPEKVCQERNKNRTDRQVEEYVIRKHTQQMKKSIKGLQREGFRYVYILNSPEEVEEVVFERQP
B1: binds.
